Assay results taken from patent publication US20190359693A1 (Janssen / Centocor, published 2019).

B1: SD3051 (VHH)
VHH: EVQLVESGGGLVQPGGSLRLSCAASGLSLDTYAMSWFRQAPGKEREGVSCISSGHGITYYADSVKGRFTISRDNSKNTLYLQMNSLQPEDTARYYCATESRYYCSDNWPAPQRYIYWGQGTQVTVSS
B2: SD3073 (VHH)
VHH: EVQLVESGGGLVQPGGSLRLSCAISGLSLDTYAVGWFRQAPGKEREGVSCISSGHGMTYYADSVKGRFTVSTDNSKNTLYLQMNSLRAEDTAVYYCATESRYYCSDNWPAPQRYIYWGQGTLVTVSS
B3: SD3055 (VHH)
VHH: EVQLVESGGGLVQPGGSLRLSCAASGLSLDTYAMSWFRQAPGKEREGITCISSGHGLTYYADSVKGRFTISRDNSKNTLYLQMNSLQPEDTARYYCATESRYYCSDNWPAPQRYIYWGQGTQVTVSS
B4: SD3054 (VHH)
VHH: EVQLVESGGGLVQPGGSLRLSCAASGLSLDTYAMSWFRQAPGKEREGITCISSGHGITYYADSVKGRFTISRDNSKNTLYLQMNSLQPEDTARYYCATESRYYCSDNWPAPQRYIYWGQGTQVTVSS
B5: SD3056 (VHH)
VHH: EVQLVESGGGLVQPGGSLRLSCAASGLSLDTYAMSWFRQAPGKEREGITCISSGHGFTYYADSVKGRFTISRDNSKNTLYLQMNSLQPEDTARYYCATESRYYCSDNWPAPQRYIYWGQGTQVTVSS
B6: SD3053 (VHH)
VHH: EVQLVESGGGLVQPGGSLRLSCAASGLSLDTYAMSWFRQAPGKEREGVSCISSGHGFTYYADSVKGRFTISRDNSKNTLYLQMNSLQPEDTARYYCATESRYYCSDNWPAPQRYIYWGQGTQVTVSS
B7: SD3052 (VHH)
VHH: EVQLVESGGGLVQPGGSLRLSCAASGLSLDTYAMSWFRQAPGKEREGVSCISSGHGLTYYADSVKGRFTISRDNSKNTLYLQMNSLQPEDTARYYCATESRYYCSDNWPAPQRYIYWGQGTQVTVSS
B8: SD3069 (VHH)
VHH: EVQLVESGGGLVQPGGSLRLSCAISGLSLDTYAVGWFRQAPGKEREGITCISSGHGMTYYADSVKGRFTVSTDNSKNTLYLQMNSLRAEDTAVYYCATESRYYCSDNWPAPQRYIYWGQGTLVTVSS
B9: SD3072 (VHH)
VHH: EVQLVESGGGLVQPGGSLRLSCAASGLSLDTYAVGWFRQAPGKEREGITCISSGHGMTYYADSVKGRFTVSTDNSKNTLYLQMNSLRAEDTAVYYCATESRYYCSDNWPAPQRYIYWGQGTLVTVSS
B10: SD3071 (VHH)
VHH: EVQLVESGGGLVQPGGSLRLSCAISGLSLDTYAVGWFRQAPGKEREGITCISSGHGLTYYADSVKGRFTVSTDNSKNTLYLQMNSLRAEDTAVYYCATESRYYCSDNWPAPQRYIYWGQGTLVTVSS
B11: SD3074 (VHH)
VHH: EVQLVESGGGLVQPGGSLRLSCAISGLSLDTYAVGWFRQAPGKEREGITCISSGHGMTYYADSVKGRFTISTDNSKNTLYLQMNSLRAEDTAVYYCATESRYYCSDNWPAPQRYIYWGQGTLVTVSS
B12: SD3070 (VHH)
VHH: EVQLVESGGGLVQPGGSLRLSCAISGLSLDTYAVGWFRQAPGKEREGITCISSGHGITYYADSVKGRFTVSTDNSKNTLYLQMNSLRAEDTAVYYCATESRYYCSDNWPAPQRYIYWGQGTLVTVSS

target: hemagglutinin (HA) of influenza B/Brisbane/60/08 (Victoria) (influenza B virus); assay: cell-based or functional assay

Point of comparison: B8, “VNA IC50” value 0.056 µM. Against it:
- B1 — higher, > 1 µM
- B2 — 2-fold lower, 0.028 µM
- B3 — higher, > 1 µM
- B4 — higher, > 1 µM
- B5 — higher, > 1 µM
- B6 — higher, > 1 µM
- B7 — higher, > 1 µM
- B9 — 2.9-fold higher, 0.16 µM
- B10 — higher, > 1 µM
- B11 — 1.6-fold lower, 0.036 µM
- B12 — higher, > 1 µM
